Numbered stars: 1 amine (or outer) side, 2 acyl side, 3 side chain; on linkers, the order of the positions; unused ones are H or OH. Bridge positions count the residues as written; N and C are the ends. Side chains are listed from the residue outwards. Ends that are not written are not given here. * marks the point of attachment. C20 diacid = O=C(O)CCCCCCCCCCCCCCCCCCC(=O)*; γGlu = O=C(O)[C@H](CCC(=O)[*:2])N[*:1]; AEEA = NCCOCCOCC(=O)O
Columns and labels:
[1] = molecular target: T1, human calcitonin receptor (human, UniProt P30988 25-474); assay: ratio of hCTR IC50 to hAmylin-R IC50 (reference: human amylin receptor)
T1 construct: whole, on cells; Used as cell membranes; also called hCTR; hCT
T1 sequence (looked up): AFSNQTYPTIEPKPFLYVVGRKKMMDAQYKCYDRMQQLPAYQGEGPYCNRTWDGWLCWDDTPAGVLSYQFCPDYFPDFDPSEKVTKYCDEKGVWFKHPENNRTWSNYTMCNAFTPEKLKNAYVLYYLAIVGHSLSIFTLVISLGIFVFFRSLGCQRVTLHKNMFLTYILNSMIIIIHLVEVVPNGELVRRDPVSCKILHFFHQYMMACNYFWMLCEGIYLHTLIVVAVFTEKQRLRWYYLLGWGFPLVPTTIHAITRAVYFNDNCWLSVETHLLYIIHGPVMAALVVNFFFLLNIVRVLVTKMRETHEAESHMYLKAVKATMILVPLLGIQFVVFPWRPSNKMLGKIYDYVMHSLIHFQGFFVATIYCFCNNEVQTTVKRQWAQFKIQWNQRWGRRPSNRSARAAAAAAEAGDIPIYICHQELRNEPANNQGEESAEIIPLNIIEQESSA
In short: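 Competition binding by SPA with cell membranes (35 ng/μL) and SPA beads in 50 mM Hepes pH 7.4 with 1 mM CaCl2, 5 mM MgCl2, 0.1% OA and 0.02% Tween20. Incubated 120 min at 25 °C with shaking, then counted.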

[2] = molecular target: T1, human calcitonin receptor; assay: SPA competition on BHK cell membranes, 125I-calcitonin as radioligand (Assay VII)
In short: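 BHK hCTR membranes 35 ng/μL + SPA beads 0.05 mg/well; buffer 50 mM Hepes pH 7.4, 1 mM CaCl2, 5 mM MgCl₂, 0.1% OA, 0.02% Tween20. 120 min, 25° C., shaking. Scintillation count; IC50 by one-site binding competition.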

Row | Binder | Ratio hCT/hAmylin binding [1] | IC50 [2] [nM]
1 | K([AEEA-γGlu-C20 diacid])CNTATCATQRLAGFLRHSSPNFGAIPSSTPVGSNTY-NH2 (disulfide 2-7; N-terminus assumed; SMILES CC[C@H](C)[C@H](NC(=O)[C@H](C)NC(=O)CNC(=O)[C@H](Cc1ccccc1)NC(=O)[C@H](CC(N)=O)NC(=O)[C@@H]1CCCN1C(=O)[C@H](CO)NC(=O)[C@H](CO)NC(=O)[C@H](Cc1c[nH]cn1)NC(=O)[C@H](CCCNC(=N)N)NC(=O)[C@H](CC(C)C)NC(=O)[C@H](Cc1ccccc1)NC(=O)CNC(=O)[C@H](C)NC(=O)[C@H](CC(C)C)NC(=O)[C@H](CCCNC(=N)N)NC(=O)[C@H](CCC(N)=O)NC(=O)[C@@H](NC(=O)[C@H](C)NC(=O)[C@@H]1CSSC[C@H](NC(=O)[C@@H](N)CCCCNC(=O)COCCOCCNC(=O)CC[C@H](NC(=O)CCCCCCCCCCCCCCCCCCC(=O)O)C(=O)O)C(=O)N[C@@H](CC(N)=O)C(=O)N[C@@H]([C@@H](C)O)C(=O)N[C@@H](C)C(=O)N[C@@H]([C@@H](C)O)C(=O)N1)[C@@H](C)O)C(=O)N1CCC[C@H]1C(=O)N[C@@H](CO)C(=O)N[C@@H](CO)C(=O)N[C@H](C(=O)N1CCC[C@H]1C(=O)N[C@H](C(=O)NCC(=O)N[C@@H](CO)C(=O)N[C@@H](CC(N)=O)C(=O)N[C@H](C(=O)N[C@@H](Cc1ccc(O)cc1)C(N)=O)[C@@H](C)O)C(C)C)[C@@H](C)O, also called compound 71) | 32 | 1.53
2 | K([AEEA-γGlu-C20 diacid])CNTATCATQRLAKFLRHSSPNFGAIPSSTPVGSNTY-NH2 (disulfide 2-7; N-terminus assumed; SMILES CC[C@H](C)[C@H](NC(=O)[C@H](C)NC(=O)CNC(=O)[C@H](Cc1ccccc1)NC(=O)[C@H](CC(N)=O)NC(=O)[C@@H]1CCCN1C(=O)[C@H](CO)NC(=O)[C@H](CO)NC(=O)[C@H](Cc1c[nH]cn1)NC(=O)[C@H](CCCNC(=N)N)NC(=O)[C@H](CC(C)C)NC(=O)[C@H](Cc1ccccc1)NC(=O)[C@H](CCCCN)NC(=O)[C@H](C)NC(=O)[C@H](CC(C)C)NC(=O)[C@H](CCCNC(=N)N)NC(=O)[C@H](CCC(N)=O)NC(=O)[C@@H](NC(=O)[C@H](C)NC(=O)[C@@H]1CSSC[C@H](NC(=O)[C@@H](N)CCCCNC(=O)COCCOCCNC(=O)CC[C@H](NC(=O)CCCCCCCCCCCCCCCCCCC(=O)O)C(=O)O)C(=O)N[C@@H](CC(N)=O)C(=O)N[C@@H]([C@@H](C)O)C(=O)N[C@@H](C)C(=O)N[C@@H]([C@@H](C)O)C(=O)N1)[C@@H](C)O)C(=O)N1CCC[C@H]1C(=O)N[C@@H](CO)C(=O)N[C@@H](CO)C(=O)N[C@H](C(=O)N1CCC[C@H]1C(=O)N[C@H](C(=O)NCC(=O)N[C@@H](CO)C(=O)N[C@@H](CC(N)=O)C(=O)N[C@H](C(=O)N[C@@H](Cc1ccc(O)cc1)C(N)=O)[C@@H](C)O)C(C)C)[C@@H](C)O, also called compound 74) | 101 | 79.9
3 | K([AEEA-γGlu-C20 diacid])CNTATCATQRLAHFLRHSSPNFGAIPSSTNVGHNTY-NH2 (disulfide 2-7; N-terminus assumed; SMILES CC[C@H](C)[C@H](NC(=O)[C@H](C)NC(=O)CNC(=O)[C@H](Cc1ccccc1)NC(=O)[C@H](CC(N)=O)NC(=O)[C@@H]1CCCN1C(=O)[C@H](CO)NC(=O)[C@H](CO)NC(=O)[C@H](Cc1c[nH]cn1)NC(=O)[C@H](CCCNC(=N)N)NC(=O)[C@H](CC(C)C)NC(=O)[C@H](Cc1ccccc1)NC(=O)[C@H](Cc1c[nH]cn1)NC(=O)[C@H](C)NC(=O)[C@H](CC(C)C)NC(=O)[C@H](CCCNC(=N)N)NC(=O)[C@H](CCC(N)=O)NC(=O)[C@@H](NC(=O)[C@H](C)NC(=O)[C@@H]1CSSC[C@H](NC(=O)[C@@H](N)CCCCNC(=O)COCCOCCNC(=O)CC[C@H](NC(=O)CCCCCCCCCCCCCCCCCCC(=O)O)C(=O)O)C(=O)N[C@@H](CC(N)=O)C(=O)N[C@@H]([C@@H](C)O)C(=O)N[C@@H](C)C(=O)N[C@@H]([C@@H](C)O)C(=O)N1)[C@@H](C)O)C(=O)N1CCC[C@H]1C(=O)N[C@@H](CO)C(=O)N[C@@H](CO)C(=O)N[C@H](C(=O)N[C@@H](CC(N)=O)C(=O)N[C@H](C(=O)NCC(=O)N[C@@H](Cc1c[nH]cn1)C(=O)N[C@@H](CC(N)=O)C(=O)N[C@H](C(=O)N[C@@H](Cc1ccc(O)cc1)C(N)=O)[C@@H](C)O)C(C)C)[C@@H](C)O, also called compound 80) | 68.1 | 19.8

Continued by falling IC50 [2], values first:

Row | Ratio hCT/hAmylin binding [1] | IC50 [2] [nM] | Binder
4 | 120 | 88.9 | K([AEEA-γGlu-C20 diacid])CNTATCATQRLAHFLRHSSPNFGAIPSSTNVGRNTY-NH2 (disulfide 2-7; N-terminus assumed; SMILES CC[C@H](C)[C@H](NC(=O)[C@H](C)NC(=O)CNC(=O)[C@H](Cc1ccccc1)NC(=O)[C@H](CC(N)=O)NC(=O)[C@@H]1CCCN1C(=O)[C@H](CO)NC(=O)[C@H](CO)NC(=O)[C@H](Cc1c[nH]cn1)NC(=O)[C@H](CCCNC(=N)N)NC(=O)[C@H](CC(C)C)NC(=O)[C@H](Cc1ccccc1)NC(=O)[C@H](Cc1c[nH]cn1)NC(=O)[C@H](C)NC(=O)[C@H](CC(C)C)NC(=O)[C@H](CCCNC(=N)N)NC(=O)[C@H](CCC(N)=O)NC(=O)[C@@H](NC(=O)[C@H](C)NC(=O)[C@@H]1CSSC[C@H](NC(=O)[C@@H](N)CCCCNC(=O)COCCOCCNC(=O)CC[C@H](NC(=O)CCCCCCCCCCCCCCCCCCC(=O)O)C(=O)O)C(=O)N[C@@H](CC(N)=O)C(=O)N[C@@H]([C@@H](C)O)C(=O)N[C@@H](C)C(=O)N[C@@H]([C@@H](C)O)C(=O)N1)[C@@H](C)O)C(=O)N1CCC[C@H]1C(=O)N[C@@H](CO)C(=O)N[C@@H](CO)C(=O)N[C@H](C(=O)N[C@@H](CC(N)=O)C(=O)N[C@H](C(=O)NCC(=O)N[C@@H](CCCNC(=N)N)C(=O)N[C@@H](CC(N)=O)C(=O)N[C@H](C(=O)N[C@@H](Cc1ccc(O)cc1)C(N)=O)[C@@H](C)O)C(C)C)[C@@H](C)O, also called compound 84)
5 | 65.3 | 8.68 | K([AEEA-γGlu-C20 diacid])CNTATCATQRLAHFLRHSSPNFGAIPSSTNVGSNTY-NH2 (disulfide 2-7; N-terminus assumed; SMILES CC[C@H](C)[C@H](NC(=O)[C@H](C)NC(=O)CNC(=O)[C@H](Cc1ccccc1)NC(=O)[C@H](CC(N)=O)NC(=O)[C@@H]1CCCN1C(=O)[C@H](CO)NC(=O)[C@H](CO)NC(=O)[C@H](Cc1c[nH]cn1)NC(=O)[C@H](CCCNC(=N)N)NC(=O)[C@H](CC(C)C)NC(=O)[C@H](Cc1ccccc1)NC(=O)[C@H](Cc1c[nH]cn1)NC(=O)[C@H](C)NC(=O)[C@H](CC(C)C)NC(=O)[C@H](CCCNC(=N)N)NC(=O)[C@H](CCC(N)=O)NC(=O)[C@@H](NC(=O)[C@H](C)NC(=O)[C@@H]1CSSC[C@H](NC(=O)[C@@H](N)CCCCNC(=O)COCCOCCNC(=O)CC[C@H](NC(=O)CCCCCCCCCCCCCCCCCCC(=O)O)C(=O)O)C(=O)N[C@@H](CC(N)=O)C(=O)N[C@@H]([C@@H](C)O)C(=O)N[C@@H](C)C(=O)N[C@@H]([C@@H](C)O)C(=O)N1)[C@@H](C)O)C(=O)N1CCC[C@H]1C(=O)N[C@@H](CO)C(=O)N[C@@H](CO)C(=O)N[C@H](C(=O)N[C@@H](CC(N)=O)C(=O)N[C@H](C(=O)NCC(=O)N[C@@H](CO)C(=O)N[C@@H](CC(N)=O)C(=O)N[C@H](C(=O)N[C@@H](Cc1ccc(O)cc1)C(N)=O)[C@@H](C)O)C(C)C)[C@@H](C)O, also called compound 69)
6 | 64.4 | 5.66 | K([AEEA-γGlu-C20 diacid])CNTATCATQRLAHFLRHSSPNFGAIPSSTNVGPNTY-NH2 (disulfide 2-7; N-terminus assumed; SMILES CC[C@H](C)[C@H](NC(=O)[C@H](C)NC(=O)CNC(=O)[C@H](Cc1ccccc1)NC(=O)[C@H](CC(N)=O)NC(=O)[C@@H]1CCCN1C(=O)[C@H](CO)NC(=O)[C@H](CO)NC(=O)[C@H](Cc1c[nH]cn1)NC(=O)[C@H](CCCNC(=N)N)NC(=O)[C@H](CC(C)C)NC(=O)[C@H](Cc1ccccc1)NC(=O)[C@H](Cc1c[nH]cn1)NC(=O)[C@H](C)NC(=O)[C@H](CC(C)C)NC(=O)[C@H](CCCNC(=N)N)NC(=O)[C@H](CCC(N)=O)NC(=O)[C@@H](NC(=O)[C@H](C)NC(=O)[C@@H]1CSSC[C@H](NC(=O)[C@@H](N)CCCCNC(=O)COCCOCCNC(=O)CC[C@H](NC(=O)CCCCCCCCCCCCCCCCCCC(=O)O)C(=O)O)C(=O)N[C@@H](CC(N)=O)C(=O)N[C@@H]([C@@H](C)O)C(=O)N[C@@H](C)C(=O)N[C@@H]([C@@H](C)O)C(=O)N1)[C@@H](C)O)C(=O)N1CCC[C@H]1C(=O)N[C@@H](CO)C(=O)N[C@@H](CO)C(=O)N[C@H](C(=O)N[C@@H](CC(N)=O)C(=O)N[C@H](C(=O)NCC(=O)N1CCC[C@H]1C(=O)N[C@@H](CC(N)=O)C(=O)N[C@H](C(=O)N[C@@H](Cc1ccc(O)cc1)C(N)=O)[C@@H](C)O)C(C)C)[C@@H](C)O, also called compound 68)
